# Results: US20120329718A1
# Molecular target: M2 muscarinic acetylcholine receptor, endogenous, canine atrium (canine)
# Assay: cell-based or functional assay
"vagal-induced ERP shortening in the PLA, Gαo1ctp minigene given together with Gαi2ctp minigene (vs. Gαi2ctp alone) [ms]","vagal-induced ERP shortening in the PLA, 3 days after minigene delivery (Gαi2ctp dogs vs. GαRp control dogs) [ms]",Substance
2.8,–,Gαo1 C-terminal peptide expressed from a pFLAG CMV6a minigene (Gαo1ctp)
–,19.5,Gαi2 C-terminal peptide expressed from a pFLAG CMV6a minigene (FLAG-tagged Gαi2ctp)
